# Assay results: the RNAGym collection of RNA variant scans (doi:10.1073/pnas.2313332121)
# Variants at the floor of the assay were thinned out.
# B1: TPR 5TU (parent)
# chain: GGAUCUUCUCGAUCUAACAAAAAAGACAAAUCUGCCACAAAGCUUGAGAGCAUCUUCGGAUGCAGAGGCGGCAGCCUUCGGUGGCGCGAUAGCGCCAACGUUCUCAACUAUGACACGCAAAACGCGUGCUCCGUUGAAUGGAGUUUAUCAUG
# Variants of: B1
# Assay: polymerase ribozyme fitness, log enrichment relative to wild type (log ratio); higher = more active; in vitro selection for triplet polymerase activity
# Procedure, shortened: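 Both subunits of a heterodimeric triplet polymerase ribozyme were given their own mutant library, built by PCR and transcribed. Each library was annealed with a biotinylated primer, the partner subunit and triplets, incubated frozen at −7 °C, and its extended constructs gel-excised, captured on streptavidin beads and amplified by RT-PCR, all in one round done in triplicate. Fitness is the logarithm of genotype enrichment relative to wild-type enrichment, with replicates averaged by inverse-variance weighting. That logarithm is base 2, and Illumina-sequenced genotypes needed ≥10 input reads and ≥1 read per output.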
row,Variant,polymerase ribozyme fitness (log ratio)
1,GGAUCUUCUCGAUCUAACAAAAAAGACAAAUCUGCCACAAAGCUUGAGAGUCUCUUCGGAUGCAGAGGCGGCAGCCUUCGGGGGCGCGAUAGCGCCAACGUUCUCAACUAUGACACGCAAAACGCGUGCUCCGUGGAAUGGAGUUUAUCAUG [C51U A52C U82G U135G],-3.54
2,GGAUCUUCUCGAUCUAACAAAAAAGACAAAUCUGCCACAAAGCUUGAGAGGAUCUUCGGAUGCAGAGGCGGCAGCCUUCGGUGGUGCGAUAGCGCCAACGUUCUCAACUAUGACACGCAAAACGCGUGCUCCGUUGAAUGGAGGUUAUCAUG [C51G C85U U144G],-1.3
3,GGAUCUUCUCGAUCUAACAAAAAAGACAAAUCUGCCACAAAGCUUGAGAGGAUCUUCGGAUGCAGAGGCGGCAGCCUUCGGUGGCGAGAUAGCGCCAACGUUCUCAACUAUGACACGCAAAACGCGUGCUCCGUUGAAUGGAGUUUAUCAUG [C51G C87A],≤ -4.2
4,GGAUCUUCUCGAUCUAACAAAAAAGACAAAUCUGCCACAAAGCUUGAGAGUAUCUUCGGAUGCCGAGGCGGCAGCCUUAGGUGGUGCGAUAGCGCCAACGUUCUCAACUAUGACACGCAAAACGCGUGCUCCGUUGAAUGGGGUUUAUCAUG [C51U A64C C79A C85U A142G],≤ -4.2
5,GGAUCUUCUCGAUCUAACAAAAAAGACAAAUCUGCCACAAAGCUUGAGAGUAUCUUCGGAUGCAGAGGCGGCUGCCUUCGGUGGCGCGAUAGCGCCAACGUUCUCAACUAUGACACGGCAAACGCGUGCUCCGUUGAAUGGAGUUUAUCAUG [C51U A73U C118G A119C],-1.81
6,GGAUCUUCUCGAUCUAACAAAAAAGACAAAUCUGCCACAAAGCUUGAGAGGACCUUCGGAUGCAGACGCGGCAGCCUUCGGUGGCUCGAUAGCGCCAACGGUCUCAACUAUGACACGCAAAACGCGUGCUCCGUUGAUUGGAGUUUAUCAUG [C51G U53C G67C G86U U101G A138U],≤ -4.2
7,GGAUCUUCUCGAUCUAACAAAAAAGACAAAUCUGCCACAAAGCUUGAGAGUGUCUUCGGAUGCAGAGGCGGCAGCCUUCGGUGGCGUGAUAGCGCCAACGUUCUCAACUAUGACACGCAAAACGCGUGCUCCGUUGCAUGGAGUUUAUCAUG [C51U A52G C87U A137C],≤ -4.2
8,GGAUCUUCUCGAUCUAACAAAAAAGACAAAUCUGCCACAAAGCUUGAGAGGAUCUUCGGAUGCAGAGGCGGCAGCCUUCUGUGGCGCGAUAGCUCCAACGUUCUCAACUAUGACACGCAAAACGCGUGCUCCGUUGAAUGGAGUUUAUCAUG [C51G G80U G94U],≤ -4.2
9,GGAUCUUCUCGAUCUAACAAAAAAGACAAAUCUGCCACAAAGCUUGAGAGGAUCUACGGAUGCAGAGGCGGCAGCCUUCGGUGGCGCGUUAGCGCCAACGUUCUCAACUAUGACACGCCAAACGCGUGUUCCGUUGAAUGGAGUUUAUCAUG [C51G U56A A89U A119C C129U],≤ -4.2
10,GGAUCUUCUCGAUCUAACAAAAAAGACAAAUCUGCCACAAAGCUUGAGAGUAUCUUCGGUUGCAGAGGCGGCAGCCUUCGGUGACGCGAUAGCGCCAGCGUUCUCAACUAUGACACGCAACACGCGUGCUCCGUUGAAUGGAUUUUCUCAUG [C51U A60U G84A A98G A121C G143U A147C],≤ -4.2
11,GGAUCUUCUCGAUCUAACAAAAAAGACAAAUCUGCCACAAAGCUUGAGAGGAUCUUCGGAUGCAGAGGCGGCAGCCUUCGGUGGCGCGAUAGCGCCAACGUUCUCAACUAUGACACGCAAAACGUGUGCUCCGUUGAAUGUAGUUUAUCAUG [C51G C125U G141U],-3.54
12,GGAUCUUCUCGAUCUAACAAAAAAGACAAAUCUGCCACAAAGCUUGAGAGGAUCUUCGGAUGCAGAGGCGGCAGCCUUCGGUUGCGCGAUAGCGCCAACGUUCUCAACUCUGACACGCAAAACGCGUGCUCCGUUGAAUCGAGUUUAUCAUG [C51G G83U A110C G140C],≤ -4.2
13,GGAUCUUCUCGAUCUAACAAAAAAGACAAAUCUGCCACAAAGCUUGAGAGGAUCUUCGGAUCCAGAGGCGGCAGCCUUCGGUGGAGCGAUAGCGCCAACGUUCUCAACUAUGACACGCAAAACGCGUGCUCCGUUGAAUGGAAUUUAUCAUG [C51G G62C C85A G143A],-1.5
14,GGAUCUUCUCGAUCUAACAAAAAAGACAAAUCUGCCACAAAGCUUGAGAGGAUCUACGGAUGCAGAGGCGGCAGCCUUCGGUGGCGCGAUAGCGCCUACGUUCUCAACUAUGACACGCAAAAUGCGUGCUCCGUUGAAUGGAGUUUAUCAUG [C51G U56A A97U C123U],-3
15,GGAUCUUCUCGAUCUAACAAAAAAGACAAAUCUGCCACAAAGCUUGAGAGUUUCUUCGGAUGCAGAGGCGGCACCCUUCGGUGGCGCGAUAGCGCCAACGUUCUCAACUAUGCCACGCAAAACGCGUGCUACGUUGAAUGGAGUUUAUCAUG [C51U A52U G74C A113C C131A],≤ -4.2
16,GGAUCUUCUCGAUCUAACAAAAAAGACAAAUCUGCCACAAAGCUUGAGAGGAUCUGCGGAUGCAGAGGCGGCAGCCUUCGGUGGCGCGAUAGUGCCAACGUUCUCAACUAUGACACGCAAAACGCGUGCUCCGUUGAAUGGAGUUUAUCAUG [C51G U56G C93U],-3.95
17,GGAUCUUCUCGAUCUAACAAAAAAGACAAAUCUGCCACAAAGCUUGAGAGUGUCUUCGGUUGCAGGGGCGGCAGCCUUCGGUGGCGCGAUAGCGCCAACGUUUUCAUCUAUGAUACGCAAAAGGCGUGCUCCGUUGAAUGGAAUUUAUCAUG [C51U A52G A60U A66G C103U A107U C114U C123G G143A],≤ -4.2
18,GGAUCUUCUCGAUCUAACAAAAAAGACAAAUCUGCCACAAAGCUUGAGAGUAUCUUCGGAUGCAGAGGCGGCAGCCUUCGGUGGCGCGAUGGCGCCAACAUUCUCAACUUUGACACGCAAUACGCGUGCUCCGUUGAAUGGAGUUUAUCAUG [C51U A91G G100A A110U A121U],≤ -4.2
19,GGAUCUUCUCGAUCUAACAAAAAAGACAAAUCUGCCACAAAGCUUGAGAGGAUCUACGGAUGCAGAGGCGGCAGCCUUCGGUGGCGCGAUAGCGCCAACGUUCUCUACUAUGACACGCAAAACGCGUGCUCCGUUGAAUGGAGUUUAUCAUG [C51G U56A A106U],≤ -4.2

row,Variant,polymerase ribozyme fitness (log ratio)
1,GGAUCUUCUCGAUCUAACAAAAAAGACAAAUCUGCCACAAAGCUUGAGAGUAUCUUCGGAUGCAGAGGCGGCAGCCUUCGGUGGCGCGGUAGCGCCAACGUUCUCAACUAUGACACGCAAAACGCGUGCUCCGUUGAAUGUAGUUUAUCAUG [C51U A89G G141U],-0.598
2,GGAUCUUCUCGAUCUAACAAAAAAGACAAAUCUGCCACAAAGCUUGAGAGUAUCUUCGGAUGCAGAGGCGGCAGCCUUCGGUGGCGCGAUAGCGCCAUCGUUCUCAACUAUGACACGCAAAACGCGUGCUCCGUCGAAUGGAGAUUAUCAUG [C51U A98U U135C U144A],-3.82
3,GGAUCUUCUCGAUCUAACAAAAAAGACAAAUCUGCCACAAAGCUUGAGAGGAUCUACGGAUGCAGAGGCGGCAGCCUUCGGUGGCGCGAUAGCGCCAACGUUCUCAACUAUGACACUCAAAACGCGUGCUCCGUUGAAUGGAGUUUAUCAUG [C51G U56A G117U],-2.86
4,GGAUCUUCUCGAUCUAACAAAAAAGACAAAUCUGCCACAAAGCUUGAGAGGAUCUUCGGAUGCAGAGGCGGCAGCCUUCGGUGGCGCGAUAGCGCCAACGUUCUCAACUAUGACACGCAAAACGUGUGCUCCGUUGAAUGGAGCUUAUCAUG [C51G C125U U144C],-4.07
5,GGAUCUUCUCGAUCUAACAAAAAAGACAAAUCUGCCACAAAGCUUGAGAGUAUCUUCGGAUGCAGAGGCGGCGGCCUUCGGUGGCGCGAUAUCGCCAACGUUCUCAACUAUGACACGCAAAACACGUGCUCCGUUGAAUGGAGUUUAUCAUG [C51U A73G G92U G124A],-0.37
6,GGAUCUUCUCGAUCUAACAAAAAAGACAAAUCUGCCACAAAGCUUGAGAGUAUCUUCGGGUGCAGAGGCGGCAGCCUUCGGUGGAGCGAUAGCGCCAACGUUCUCAACUAUGACACGCAAAACGCGUGCUCCGUUGAAUGGAGUUUAUCAUG [C51U A60G C85A],-3.39
7,GGAUCUUCUCGAUCUAACAAAAAAGACAAAUCUGCCACAAAGCUUGAGAGUAUCUUCGGAUGCAGAGGCGGCAGCCUUCGGUGGCGCGGUAGCGCCGACGUUCUCAACUAUGACACGCAAAACGCGUGCUCCGUUGAAUGGAUUUUAUCAUG [C51U A89G A97G G143U],-3.43
8,GGAUCUUCUCGAUCUAACAAAAAAGACAAAUCUGCCACAAAGCUUGAGAGUAUCUUCGGAUGCAGAGGCGGCGGCCUUCGGUGGCGCGAUAGCGCGAACGUUCUCAACUAUGACACGCAAAAUGCGUGCUCCGUUGAAUGGAGUUUAUCAUG [C51U A73G C96G C123U],-0.999
9,GGAUCUUCUCGAUCUAACAAAAAAGACAAAUCUGCCACAAAGCUUGAGAGGAUCUUCCGAUGCAGAGGCGGCAGCCUUCGGUGGCGCGAUAGCGCCAACGUUCUCAACUAUGACACGCAAAACGCGUGCUCCGUUGAAUGGAGUUUAUCAUG [C51G G58C],-1.42
10,GGAUCUUCUCGAUCUAACAAAAAAGACAAAUCUGCCACAAAGCUUGAGAGUAUCUUCGGAUGCAGAGGCGGCAGCCUUCGGUGGCGCGGUAGCGCCAAUGUUCUCAACUAUGACACGCAAAACGCGUGCUCCGUUGAAUGGAGUUUAUCGUG [C51U A89G C99U A150G],-3.67
11,GGAUCUUCUCGAUCUAACAAAAAAGACAAAUCUGCCACAAAGCUUGAGAGUAUGUUCGGAUGCAGAGGCGGCAGCCUUCGGUGGUGCGAUAGCGCCAACGGUCUCAACUAUGACACGCAAAACGCGUGCUCCGUUGGAUGGAGGUUAUCAUG [C51U C54G C85U U101G A137G U144G],≤ -4.2
12,GGAUCUUCUCGAUCUAACAAAAAAGACAAAUCUGCCACAAAGCUUGAGAGUAUCUUCGGAUGCAGAGGCGGCGGCCUUCGGUGGCGCGAUAUCGCCAACGUUCUCAACUAUGACACGCAAAACGCGUGCUCCGUUGAAUGGAGUUUAUCAUG [C51U A73G G92U],-0.595
13,GGAUCUUCUCGAUCUAACAAAAAAGACAAAUCUGCCACAAAGCUUGAGAGGAUCUUCGGAUGCAGAGGCGGCAGCCUUCGGUGGCGCGAUAGCGCAAACGUUCUCAACUAUGACACGCAAAACGCGUGCUCCGUUGAAUGGAGUUUCUCAUG [C51G C96A A147C],-3.82
14,GGAUCUUCUCGAUCUAACAAAAAAGACAAAUCUGCCACAAAGCUUGAGAGGAUCUUCGGAUGCAGAGGCGGCAGCCUUCGGUGGCGAGAUAGGGCCAACGUUCUAAACUAUGUCACGCAAAACGCGUGCUCCGUUGAAUGGAGUUUAUCAUG [C51G C87A C93G C105A A113U],≤ -4.2
15,GGAUCUUCUCGAUCUAACAAAAAAGACAAAUCUGCCACAAAGCUUGAGAGUAUCUUCGGAUGCAGAGGCGGCAGCCUUCGGUGGCGCGCUAGCGCUAACGUUCUCAACUAUGACACGCAAAACGCGUGCUCCGUUGAAUGGUGUUUAUCAUG [C51U A89C C96U A142U],-2.78
16,GGAUCUUCUCGAUCUAACAAAAAAGACAAAUCUGCCACAAAGCUUGAGAGUGUCUUCGGAUGCAGAGGCGGCAGCCUUCGGUGGCGCGAUAGCGCCAACGUUCUCAACUAUGACACGCAAAACGCGUGCUCCGUUGAAUGGAGUUUAUCAUG [C51U A52G],-1.18
17,GGAUCUUCUCGAUCUAACAAAAAAGACAAAUCUGCCACAAAGCUUGAGAGGAUCUUCGGAUGCAGAGGCGGCAGCCUUCGGUGUCGCGAUAGCGCCAACGUUCUCAACUAUGACACGCAAAACGCGUGCUCCGUUGAAUGGAGUUUAUCAUG [C51G G84U],-3.11
18,GGAUCUUCUCGAUCUAACAAAAAAGACAAAUCUGCCACAAAGCUUGAGAGGAUCUACGGAUGCAGAGGCGGCAGCCUUCGGUGGCGCGAUAGCGCCAACGUUCUCAACUAUGACACGCAAAACGCGUGCUCCGUUGAAUGGAGUUUAUCAUG [C51G U56A],-2.67
19,GGAUCUUCUCGAUCUAACAAAAAAGACAAAUCUGCCACAAAGCUUGAGAGGAUCUUCGGAUGCAGAGGCGGCAGCCUUCGGUGACGCGAUAGCGGCAACGUUCUCAACUAUGACACGCGAAACGCGUGCUCCGUUGAAUGGAGUUUAUCAUG [C51G G84A C95G A119G],-2.85
